Source: the DeepSol protein solubility set

Experiment: soluble on expression in E. coli; label from the status in PepcDB or PDB records

Sequence	soluble on expression in E. coli
MGSDKIHHHHHHMDPVLELEAVSKCFQRYRHPRDRLWELLFPRTSRVQTFQALENISLQVEPGRTIGIVGRNGAGKSTLLQIVAGTLTPSSGRVKVRGRVAALLELGSGFNPEFTGRQNVFFNGQLLGLTPQEIRDRFAEIVAFAEIGDFLDQPVKTYSSGMMVRLAFSVVAHLDPELLIVDEALAVGDARFQARCMKRIRELKEKGTTILFVSHDANAVRMLCDEAVLLEGGRILERGNPNWVLNHYNQLLGLEDRDNYRPLAQETQQAGLCYVEQAAHPNRHGNGRATISKAWLSGSGLQADKVLQGGDLTLTFQLQIHQDLPDALIGLSIRNLYGVVIYGTNNLQLEKRPKALAAGSSPELSFRWRNQLNAGVYTISIAITSEDCEVYDWIDEALVFEVVNDRFCEGVIDLGADLHWISEFSSPAAIATSRDSLGSTSPSS	not soluble
MGSDKIHHHHHHMDSRDMQAIGLCRFSYPAIGGFQVEHETIEERISYLYAEDRLEERFQLLETVALPCLREQTDQNFELIVVIGDTLPKRHGDRLHDLTSDMPQVRIVVEPPRPQRELMKELLNSARTDPSKPCLQFRYDDDDAVSVDFIERFRNALNDCRGLVTTNRTVAVDFNRGYVAELGADGIAATETVRTLYVASLGMYVKGGCRLTIMNFAHEKIGRFMPVISISDVPMWVRSHNGFNDSRQKKVKPVPVVPLTEDQKAEFAARFAIREDHVKRVFSGG	not soluble
MGSDKIHHHHHHMDTLIRRYKRLLTATSTTYIRSLMDTINWDNRLIAIRGARGVGKTTLMLQYLKLHYANDSQSALYTSLDSLYFTQHTLSELAEQFYLKGGKCLFLDEVHKYPSWSKEIKNIYDEFPELKIVFTGSSLLQLLNAEADLSRRCISYNMQGLSYREYLKLFHQIHIRPYTLEEILESSDGICNEVNSQCRPLAHFEDYLKHGYYPFYLEGNAEYYTRIENITNLILEIELPQQCGVDISNVRKLKSLLGILSSEVPFMVDITKLSALAELSRTTILAYLQYLDRAKLIHLLYSDNDSIKKLQKPDKIYMENTNLLYALTFKDVNKGTLREVFMVNQLSYLHRVEYCTRSADYTIDSKYTIEVGGKSKDGKQIAGSKKAFIAADDIEYSAGNKIPLWAFGFLY	not soluble
MGSDKIHHHHHHMDTQAFKQTLHKSDRYNRRGFGSANKRAQALAEAYQSGLIGSIRENGNLLEHGRLKVKLAEAFGFCWGVERSVAMAYETRKHYPNERIWITNEIIHNPSVNDHLRKMNVLFISEEKGVKDFSVVKDGDVVILPAFGATVQDMKLLHDRGCHIIDTTCPWVSKVWHTVEKHKKHTFTSIIHGKYKHEETLATSSFAGTYLVLFDLEEANYVSDYILGKGNREDFLKRFSKASSAGFDPDKDLQKVGVANQTTMLKSETEEIGRLFEKTMLQRFGPAQLNEHFLAINTICDATEERQGAMFSLVDEPLDLMVVIGGFNSSNTTHLQEIAISRGIRSFHIDTPERIGEETNTITHMPLEGGELLTEENFLQNGNISVGITSGASTPDRVVEDVIHKLMKIGENF	not soluble
MGSDKIHHHHHHMDTRIRDFVKTNECYFAVNTYYHPENSVISFLRYINIDKIGNHLLKDYELDENDIRILNGERFIKVADSSKAYAILKEYYPEYLFYDEINDVLLHAVPKTNIKEILSPQKRLEEVLNEQNTEAEIKCAKLADTLHDYGLEYKNMGVSGSTVLKLNNENSDIDFVIYGMEKHKIAREILSVTFKDGVLEPLSEDFWKKAYVKRIKDGTLTYDEFVWHEKRKLNRGVVDGVMFDLLATREWDEITENYGDKKYKNLGFIQIKAKVKDDTFVFDNPAVYKVENVEILNNENNAEVLASEIEEVVSFTHTYAGSTYNGEEIIVRGKLEEVSGKETYKRVVVGTTREAFNEYVKLAK	not soluble
MGSDKIHHHHHHMDVIDAVNRRMSVRAFKPDPVDAGLIRDLLEAAARAPSGGNLQPWRVQVVGGAPLEALKAAMLQRVASPDPTEYDVYPANLWEPLRSRRFQVGEDMYGALGIPREDKLQRLQWFANNGQGFGAPVQLFFSIDRRCGPPQWSDVGMLMQTFMLLAVERGLDTCPQEFWSHYNKLVDEHVGLPEGHMLFSGMALGYRDADAPVNNFRSRRAPFEEWAELKGF	not soluble
MGSDKIHHHHHHMDVSIDSGKKKIIPFIQSGDYFFRRGVIAFRKNHLSRAVKLLERAVKLTEQEPVFHIQLAAVLSELGHYERSNDILESVVQNLDPGHSECHFFMANNYAYLGLFEKAEHCAIAYLSDQPDGEFAKDAHDLLDLLRFEKEEEGDEWENELTPTDQFLLEHEKACQLLEEGHLQEAIVLLEKLMDEEPSYWTAYNQYAQALFRLGNVEKAFEVCEHILEEDQGNLFALCNMALFYKKQGQQQQAESLIQALSAVHPMDRAHRFKVAQVLCAVGAYEQAYDRLKELEWTSISSDPEWHFCIGVAAYHLGQEEIALRYWKKAATLGVQQAADYYAMSIVDILQKEDVTYEGWHVKQKSRQNS	not soluble
MGSDKIHHHHHHMEALLQLKGIDKAFPGVKALSGAALNVYPGRVMALVGENGAGKSTMMKVLTGIYTRDAGTLLWLGKETTFTGPKSSQEAGIGIIHQELNLIPQLTIAENIFLGREFVNRFGKIDWKTMYAEADKLLAKLNLRFKSDKLVGDLSIGDQQMVEIAKVLSFESKVIIMDEPTDALTDTETESLFRVIRELKSQGRGIVYISHRMKEIFEICDDVTVFRDGQFIAEREVASLTEDSLIEMMVGRKLEDQYPHLDKAPGDIRLKVDNLCGPGVNDVSFTLRKGEILGVSGLMGAGRTELMKVLYGALPRTSGYVTLDGHEVVTRSPQDGLANGIVYISEDRKRDGLVLGMSVKENMSLTALRYFSRAGGSLKHADEQQAVSDFIRLFNVKTPSMEQAIGLLSGGNQQKVAIARGLMTRPKVLILDEPTRGVDVGAKKEIYQLINQFKADGLSIILVSSEMPEVLGMSDRIIVMHEGHLSGEFTREQATQEVLMAAAVGKLNRVNQE	not soluble
MGSDKIHHHHHHMEHGTESFWTDIKRYEDILAKDPGSYCFAPLSELYRKVGLLDDAIMTARTGIGQHPEYVGGYMALGRACFEKGERTESRAALEKVVRVTPDNLLAQKLLSQIYVDAGESDLARRCLEIILSLSPGDLESKLMLDAMCRQPRENADRADDLFNEMGAAAAIDLEDESLLEEIEIIEELVDEVVDEEDLAAFTAHAPPPPLAEESFADVLLDEEPVANADVPSPRDVLSTGTVADLYIAQGFPKKALAIYRDLLDADPLNEDIRNRMVDLKKRIDEDEARARESVLAEAVSATDTTAQIQGDLTADREAFKEEAASGFAVESAHEVDIPLEVAVSAESSLNVAEEKEASAAHVVSALEGWLDSIRRIRQCRSVLH	not soluble
MGSDKIHHHHHHMEIELKTLGNYKAILGESPVYDREGNRLFWVDIDGKKVIVNNLDTNEEKYYDTPDLVTSLCLIDYKRIIVTLRHGFHTLNLTTGEITPYLELENNGENRFNDGKCDIRDRYWAGTMNLHIENPKPTASLYKLEGQRLTKVLDKLYRSNGLGWDPDNKLFYLIDTPLRKVFQFDFDKDKGDIYNKRIVMDFKYEPGRPDGMTIDEEGYLWIAHSAGGKVSRWNPKNGEKVSEIKLPVLYVSSVTFGSPEMNQIFITTMSKGGEPLAGRLFTAKMNIKGLQSYKFLT	not soluble
MGSDKIHHHHHHMEIFGKTFREGRFVLKEKNFTVEFAVEKIHLGWKISGRVKGSPGRLEVLRTKAPEKVLVNNWQSWGPCRVVDAFSFKPPEIDPNWRYTASVVPDVLERNLQSDYFVAEEGKVYGFLSSKIAHPFFAVEDGELVAYLEYFDVEFDDFVPLEPLVVLEDPNTPLLLEKYAELVGMENNARVPKHTPTGWCSWYHYFLDLTWEETLKNLKLAKNFPFEVFQIDDAYEKDIGDWLVTRGDFPSVEEMAKVIAENGFIPGIWTAPFSVSETSDVFNEHPDWVVKENGEPKMAYRNWNKKIYALDLSKDEVLNWLFDLFSSLRKMGYRYFKIDFLFAGAVPGERKKNITPIQAFRKGIETIRKAVGEDSFILGCGSPLLPAVGCVDGMRIGPDTAPFWGEHIEDNGAPAARWALRNAITRYFMHDRFWLNDPDCLILREEKTDLTQKEKELYSYTCGVLDNMIIESDDLSLVRDHGKKVLKETLELLGGRPRVQNIMSEDLRYEIVSSGTLSGNVKIVVDLNSREYHLEKEGKSSLKKRVVKREDGRNFYFYEEGERE	soluble
MGSDKIHHHHHHMEIIAGYRTTSDSRYIALIKADGNNAGKIFGNTVTFSEYVDKSFRLDFGVKKMFYDTLLDIMRASSDESIKKDLVSRILLGVLYLGGDDIMLLSPSAIAVPFAVKMFKRSLEYTGFTFKVGIISVKPDHPVQFAYGAVNALMEESKIHTGEKSSIGVLVFSSTLASEGVVKSDLKNYRKEKESFLVVSNDVDDVERLLNLMELDDFGKLMELYWNPEEGRKVIRDKIRSLERFVNYADTHDFYNTLAYLIRSKAKSEENSLIKRIIDLTIKGRDDFVFPLYDYYFILKSIRVGI	not soluble
MGSDKIHHHHHHMEIKEMVSLARKAQKEYQATHNQEAVDNICRAAAKVIYENAAILAREAVDETGMGVYEHKVAKNQGKSKGVWYNLHNKKSIGILNIDERTGMIEIAKPIGVVGAVTPTTNPIVTPMSNIIFALKTCNAIIIAPHPRSKKCSAHAVRLIKEAIAPFNVPEGMVQIIEEPSIEKTQELMGAVDVVVATGGMGMVKSAYSSGKPSFGVGAGNVQVIVDSNIDFEAAAEKIITGRAFDNGIICSGEQSIIYNEADKEAVFTAFRNHGAYFCDEAEGDRARAAIFENGAIAKDVVGQSVAFIAKKANINIPEGTRILVVEARGVGAEDVICKEKMCPVMCALSYKHFEEGVEIARTNLANEGNGHTCAIHSNNQAHIILAGSELTVSRIVVNAPSATTAGGHIQNGLAVTNTLGCGSWGNNSISENFTYKHLLNISRIAPLNSSIHIPDDKEIWEL	not soluble
MGSDKIHHHHHHMEKMTFGLIVGNREFFPDRLVEEGRERVIKVLEGMGYRVVTLSPSDTKLGAVETAKDAKKCAELFKEKAGEIDGIIVTLPNFGDEKGVAQAIRLSGLNVPVLVHAFPDDPEKLDLQNRRDSFCGKISVSNNLKQYGIEFSLTTLHTEDPESEVFKRDIEKFAAVCRIVKGMRNIKVGAIGARPSAFNTVRFSEKILERMSISVETVDLSEILHRVSNLKDDDERVRRKLEEIKKNYRLQIVPEEKILLMAKFGSVIDEWIEENDIKALAIQCWTSLEWNLGITPCTIMSLLNEKGKPAACEVDITGALSMYVLQLASGQPSAIVDWNNNYRDENETILFHCGNFPASIYEEKPEIKYADVIGTTVGKERAYGACAGKIKTSPFTFLRLTTDDNEGKVKAYVGEGQILDENPKTFGSRGVARIEKLQELMKYICENGFEHHVAINLSRVADAVKEALEKYLGIVVHKHNAEV	not soluble
MGSDKIHHHHHHMEKTAIRIPIFMYSLLTPAWEHKIEAQTDGDPFGDSQPMKEYYGPNGKWLLDGVLRHLNISREDEIAILTTSDERYVSTCVSITCFNYAKISRVVGPNTKVVIVIHEFGYVYPDIKNYVCNLKERGIVVIEDCAHIIGCDINGKKIGSFGDYALFSLPKISPARAGGLLRTTKNIKLPVLNSNLSQLTNIGIAGAEKYLPKYKFFNKGRIERAELLKSQVNDLCNIFEPSHPAVPYFLGIVTSEKSKIETSLPWIEFGATLRNDLVYIPTNPLASINLFELITNTIKNGGKICN	not soluble
MGSDKIHHHHHHMELGTPIAEGNTAKIYLVENRVVKVFKGHLPDTEAANEARKQKYAHSCGLSVPEIFDVTEVNGKQAIMMEYINGKTMGEILFENKEQAEYYMSISVGIQHQIHSKVADSLEPMSEKLSRQIKAAPGLSNNQRSALLKRLETLSIDNRLCHGDFHLYNLIKTNNKVTIIDWVDASVGDMCADICRTYLLYSQFSAELADMYLHLSCKKRGLSQADIFQWAPIIAGARLSETVISEKAERLIEIVKHHFPR	not soluble
